Test results as given in patent publication EP4782466A1, “FUSION PROTEIN FOR INACTIVATING CORONAVIRUS AND USE THEREOF” (priority 2023, dated 2025).

Key:
Experiment in all cases: cell-based or functional assay
[1] = molecular target: S protein of SARS-CoV-2 Alpha (B.1.1.7) (SARS-CoV-2 Alpha (B.1.1.7))
[2] = molecular target: S protein of SARS-CoV-2 Beta (B.1.351) (SARS-CoV-2 Beta (B.1.351))
[3] = molecular target: S protein of SARS-CoV-2 Delta (B.1.617.2) (SARS-CoV-2 Delta (B.1.617.2))
[4] = molecular target: S protein of SARS-CoV-2 Gamma (P.1) (SARS-CoV-2 Gamma (P.1))
[5] = molecular target: S protein of SARS-CoV-2 Lambda (SARS-CoV-2 Lambda)
[6] = molecular target: S protein of SARS-CoV-2 Omicron BA.1 (SARS-CoV-2 BA.1)
[7] = molecular target: S protein of SARS-CoV-2 Omicron BA.2 (SARS-CoV-2 BA.2)
[8] = molecular target: S protein of SARS-CoV-2 Omicron BA.2.12.1 (SARS-CoV-2 BA.2.12.1)
[9] = molecular target: S protein of SARS-CoV-2 Omicron BA.2.2 (SARS-CoV-2 BA.2.2)
[10] = molecular target: S protein of SARS-CoV-2 Omicron BA.2.75 (SARS-CoV-2 BA.2.75)
[11] = molecular target: S protein of SARS-CoV-2 Omicron BA.2.9 (SARS-CoV-2 BA.2.9)
[12] = molecular target: S protein of SARS-CoV-2 Omicron BA.3 (SARS-CoV-2 BA.3)
[13] = molecular target: S protein of SARS-CoV-2 Omicron BA.4.6 (SARS-CoV-2 BA.4.6)
[14] = molecular target: S protein of SARS-CoV-2 Omicron BA.5 (SARS-CoV-2 BA.5)
[15] = molecular target: S protein of SARS-CoV-2 Omicron BF.7 (SARS-CoV-2 BF.7)
[16] = molecular target: S protein of SARS-CoV-2 Omicron BQ.1 (SARS-CoV-2 BQ.1)
[17] = molecular target: S protein of SARS-CoV-2 Omicron XBB (SARS-CoV-2 XBB)

Substance “AL5E protein (ACE2-linker-EK1 fusion protein with (GGGGS)5 linker)” has an EC50, inactivation of pseudovirus (Caco-2, luciferase) [1] of 8.72 nM, a Fold enhancement of AL5E over ACE2 (EC50, pseudovirus inactivation) [1] of 27.9 fold and a Fold enhancement of AL5E over ACE2 (IC50, pseudovirus inhibition) [1] of 47.7 fold. It also gave an IC50, inhibition of pseudovirus infection (Caco-2, luciferase) [1] of 0.13 nM, an EC50, inactivation of pseudovirus (Caco-2, luciferase) [2] of 1.57 nM and a Fold enhancement of AL5E over ACE2 (EC50, pseudovirus inactivation) [2] of 78.4 fold. For the same substance, the Fold enhancement of AL5E over ACE2 (IC50, pseudovirus inhibition) [2] was 94.5 fold, the IC50, inhibition of pseudovirus infection (Caco-2, luciferase) [2] was 0.17 nM and the EC50, inactivation of pseudovirus (Caco-2, luciferase) [3] was 8.21 nM. For the same substance, the Fold enhancement of AL5E over ACE2 (EC50, pseudovirus inactivation) [3] was 73.7 fold, the Fold enhancement of AL5E over ACE2 (IC50, pseudovirus inhibition) [3] was 30.3 fold and the IC50, inhibition of pseudovirus infection (Caco-2, luciferase) [3] was 0.16 nM. For the same substance, the EC50, inactivation of pseudovirus (Caco-2, luciferase) [4] was 2.7 nM, the Fold enhancement of AL5E over ACE2 (EC50, pseudovirus inactivation) [4] was 32.8 fold and the Fold enhancement of AL5E over ACE2 (IC50, pseudovirus inhibition) [4] was 68.5 fold. It also gave an IC50, inhibition of pseudovirus infection (Caco-2, luciferase) [4] of 0.22 nM, an EC50, inactivation of pseudovirus (Caco-2, luciferase) [5] of 2.75 nM and a Fold enhancement of AL5E over ACE2 (EC50, pseudovirus inactivation) [5] of 42 fold. It also gave a Fold enhancement of AL5E over ACE2 (IC50, pseudovirus inhibition) [5] of 427 fold, an IC50, inhibition of pseudovirus infection (Caco-2, luciferase) [5] of 0.03 nM and an EC50, inactivation of pseudovirus (Caco-2, luciferase) [6] of 1.29 nM. It also gave a Fold enhancement of AL5E over ACE2 (EC50, pseudovirus inactivation) [6] of 63.7 fold, a Fold enhancement of AL5E over ACE2 (IC50, pseudovirus inhibition) [6] of 624 fold and an IC50, inhibition of pseudovirus infection (Caco-2, luciferase) [6] of 0.03 nM. For the same substance, the EC50, inactivation of pseudovirus (Caco-2, luciferase) [7] was 3.04 nM, the Fold enhancement of AL5E over ACE2 (EC50, pseudovirus inactivation) [7] was 108 fold and the Fold enhancement of AL5E over ACE2 (IC50, pseudovirus inhibition) [7] was 96.8 fold. The IC50, inhibition of pseudovirus infection (Caco-2, luciferase) [7] was 0.13 nM, the EC50, inactivation of pseudovirus (Caco-2, luciferase) [8] was 1.94 nM and the Fold enhancement of AL5E over ACE2 (EC50, pseudovirus inactivation) [8] was 39.2 fold. For the same substance, the Fold enhancement of AL5E over ACE2 (IC50, pseudovirus inhibition) [8] was 176 fold, the IC50, inhibition of pseudovirus infection (Caco-2, luciferase) [8] was 0.06 nM and the EC50, inactivation of pseudovirus (Caco-2, luciferase) [9] was 3.35 nM. It also gave a Fold enhancement of AL5E over ACE2 (EC50, pseudovirus inactivation) [9] of 142 fold, a Fold enhancement of AL5E over ACE2 (IC50, pseudovirus inhibition) [9] of 59.3 fold and a Fold of AL5E over ACE2 (IC50, live BA.2.2 virus inhibition) [9] of 44 fold. It also gave an IC50, inhibition of pseudovirus infection (Caco-2, luciferase) [9] of 0.2 nM, an EC50, inactivation of pseudovirus (Caco-2, luciferase) [10] of 1.91 nM and a Fold enhancement of AL5E over ACE2 (EC50, pseudovirus inactivation) [10] of 354 fold. For the same substance, the Fold enhancement of AL5E over ACE2 (IC50, pseudovirus inhibition) [10] was 51 fold, the IC50, inhibition of pseudovirus infection (Caco-2, luciferase) [10] was 0.52 nM and the EC50, inactivation of pseudovirus (Caco-2, luciferase) [11] was 8.62 nM. It also gave a Fold enhancement of AL5E over ACE2 (EC50, pseudovirus inactivation) [11] of 47.2 fold, a Fold enhancement of AL5E over ACE2 (IC50, pseudovirus inhibition) [11] of 95.4 fold and an IC50, inhibition of pseudovirus infection (Caco-2, luciferase) [11] of 0.08 nM. The EC50, inactivation of pseudovirus (Caco-2, luciferase) [12] was 2.26 nM, the Fold enhancement of AL5E over ACE2 (EC50, pseudovirus inactivation) [12] was 23.1 fold and the Fold enhancement of AL5E over ACE2 (IC50, pseudovirus inhibition) [12] was 32.5 fold. For the same substance, the IC50, inhibition of pseudovirus infection (Caco-2, luciferase) [12] was 0.2 nM, the EC50, inactivation of pseudovirus (Caco-2, luciferase) [13] was 2.28 nM and the Fold enhancement of AL5E over ACE2 (EC50, pseudovirus inactivation) [13] was 508 fold. The Fold enhancement of AL5E over ACE2 (IC50, pseudovirus inhibition) [13] was 70.8 fold, the IC50, inhibition of pseudovirus infection (Caco-2, luciferase) [13] was 0.93 nM and the EC50, inactivation of pseudovirus (Caco-2, luciferase) [14] was 2.27 nM. It also gave a Fold enhancement of AL5E over ACE2 (EC50, pseudovirus inactivation) [14] of 148 fold, a Fold enhancement of AL5E over ACE2 (IC50, pseudovirus inhibition) [14] of 382 fold and an IC50, inhibition of pseudovirus infection (Caco-2, luciferase) [14] of 0.04 nM. It also gave an EC50, inactivation of pseudovirus (Caco-2, luciferase) [15] of 1.99 nM, a Fold enhancement of AL5E over ACE2 (EC50, pseudovirus inactivation) [15] of 96.3 fold and a Fold enhancement of AL5E over ACE2 (IC50, pseudovirus inhibition) [15] of 362 fold. It also gave an IC50, inhibition of pseudovirus infection (Caco-2, luciferase) [15] of 0.28 nM, an EC50, inactivation of pseudovirus (Caco-2, luciferase) [16] of 3.73 nM and a Fold enhancement of AL5E over ACE2 (EC50, pseudovirus inactivation) [16] of 40 fold. The Fold enhancement of AL5E over ACE2 (IC50, pseudovirus inhibition) [16] was 136 fold, the IC50, inhibition of pseudovirus infection (Caco-2, luciferase) [16] was 0.16 nM and the EC50, inactivation of pseudovirus (Caco-2, luciferase) [17] was 4.69 nM. For the same substance, the Fold enhancement of AL5E over ACE2 (EC50, pseudovirus inactivation) [17] was 45.2 fold, the Fold enhancement of AL5E over ACE2 (IC50, pseudovirus inhibition) [17] was 74.5 fold and the IC50, inhibition of pseudovirus infection (Caco-2, luciferase) [17] was 0.17 nM.
